The chains are these.
T1: human GIP receptor (human, UniProt P48546 22-466)
T1 sequence (looked up): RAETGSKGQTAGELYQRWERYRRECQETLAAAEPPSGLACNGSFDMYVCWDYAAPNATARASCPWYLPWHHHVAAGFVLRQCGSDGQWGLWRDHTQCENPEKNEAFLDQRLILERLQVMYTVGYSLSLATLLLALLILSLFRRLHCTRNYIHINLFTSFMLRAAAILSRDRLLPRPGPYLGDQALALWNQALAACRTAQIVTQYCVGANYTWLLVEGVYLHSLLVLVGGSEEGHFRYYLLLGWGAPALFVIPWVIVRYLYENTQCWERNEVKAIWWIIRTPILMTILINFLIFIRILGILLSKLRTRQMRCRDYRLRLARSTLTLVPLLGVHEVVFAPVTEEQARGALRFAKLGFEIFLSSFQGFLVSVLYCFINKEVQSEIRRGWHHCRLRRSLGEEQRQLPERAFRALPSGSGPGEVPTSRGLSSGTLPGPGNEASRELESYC

B1: P007 (peptide)
peptide: YXEGTXTSDYXIXLDKQAQAEFVKWLLKGGPSSGAPPPSK
modifications: Aib at 2, αMePhe at 6, Aib at 11, Aib at 13; K at position 24 conjugated at the ε-amino with ([2-(2-amino-ethoxy)-ethoxy]-acetyl)2-(γ-Glu)1-CO-(CH2)16-CO2H; C-terminal primary amide
B2: P008 (peptide)
peptide: B1 peptide
modifications: Aib at 2, αMePhe at 6, Aib at 11, Aib at 13; K at position 28 conjugated at the ε-amino with ([2-(2-amino-ethoxy)-ethoxy]-acetyl)2-(γ-Glu)1-CO-(CH2)16-CO2H; C-terminal primary amide
B3: P013 (peptide)
peptide: B1 peptide
modifications: Aib at 2, αMePhe at 6, Aib at 11, Aib at 13; K at position 24 conjugated at the ε-amino with ([2-(2-amino-ethoxy)-ethoxy]-acetyl)2-(γ-Glu)1-CO-(CH2)18-CO2H; C-terminal primary amide

In the first assay the target is T1, human GIP receptor. Nature of the assay: cell-based or functional assay.
As for YXEGTXTSDYXIXLDKQAQAEFVKWLLKGGPSSGAPPPSK (Aib at 2, αMePhe at 6, Aib at 11, Aib at 13; C-terminal primary amide) [P001], the “EC50 value (ratio of the EC50 of the endogenous ligand GIP to the EC50 of the test compound), LANCE Ultra cAMP assay in HEK293/GIPR cells” value was found to be 7.13 ratio.

Regarding B1, the “EC50 value (ratio of the EC50 of the endogenous ligand GIP to the EC50 of the test compound), LANCE Ultra cAMP assay in HEK293/GIPR cells” value turned out to be 1.15 ratio.

Turning to B2, the “EC50 value (ratio of the EC50 of the endogenous ligand GIP to the EC50 of the test compound), LANCE Ultra cAMP assay in HEK293/GIPR cells” value stood at 1.67 ratio.

As to B3, the “EC50 value (ratio of the EC50 of the endogenous ligand GIP to the EC50 of the test compound), LANCE Ultra cAMP assay in HEK293/GIPR cells” value worked out at 0.86 ratio.

The target in another assay is T2, human GLP-1 receptor (human, UniProt P43220 24-463). In words: cell-based or functional assay.
For the molecule YXEGTXTSDYXIXLDKQAQAEFVKWLLKGGPSSGAPPPSK (Aib at 2, αMePhe at 6, Aib at 11, Aib at 13; C-terminal primary amide) [P001], the “EC50 value (ratio of the EC50 of the endogenous ligand GLP-1 to the EC50 of the test compound), cAMP reporter gene (luciferase) assay in HEK293/CRE/GLP-1R cells” value worked out at 52.1 ratio.

Regarding B1, the “EC50 value (ratio of the EC50 of the endogenous ligand GLP-1 to the EC50 of the test compound), cAMP reporter gene (luciferase) assay in HEK293/CRE/GLP-1R cells” value stood at 5.84 ratio.

Regarding B2, the “EC50 value (ratio of the EC50 of the endogenous ligand GLP-1 to the EC50 of the test compound), cAMP reporter gene (luciferase) assay in HEK293/CRE/GLP-1R cells” value came to 4.79 ratio.

Take B3: the “EC50 value (ratio of the EC50 of the endogenous ligand GLP-1 to the EC50 of the test compound), cAMP reporter gene (luciferase) assay in HEK293/CRE/GLP-1R cells” value amounted to 2.41 ratio.

The next assay deals with T1, human GIP receptor. In words: radioligand competition: displacement of [125I]GIP from membranes of cells over-expressing human GIPR; ratio = Ki of GIP / Ki of compound. Here is the method:
98 μL of membrane dissolved in binding buffer (50 mM HEPES pH 7.4, 5 mM MgCl₂, 1 mM CaCl₂, 0.1% BSA, 0.005% Tween-20) is transferred to a 96-well test plate (15 μg/well). The compound is serially diluted in DMSO, and then, 2 μL of the diluted compounds or 100% DMSO is added to the test plate containing the membrane solution. […] The test plate is left at room temperature for 90 minutes. […] After drying at 37° C. for 2 hours, 50 μL of scintillation fluid is added to each well. The plate is read with a MicroBeta2 scintillation counter after sealing and settling for at least 1 hour so as to determine the membrane bound radioligand level.
(In general: In a radioligand displacement assay an active substance lowers the binding of a labelled ligand.)
Turning to YXEGTXTSDYXIXLDKQAQAEFVKWLLKGGPSSGAPPPSK (Aib at 2, αMePhe at 6, Aib at 11, Aib at 13; C-terminal primary amide) [P001], the Ki ratio amounted to 8.82 ratio.

As to B2, the Ki ratio is 0.16 ratio.

In the case of B3, the Ki ratio was 0.14 ratio.

The next assay concerns the target T2, human GLP-1 receptor. Nature of the assay: radioligand competition: displacement of [125I]GLP-1 from membranes of cells over-expressing human GLP-1R; ratio = Ki of GLP-1 / Ki of compound. The procedure:
89 μL of membrane dissolved in binding buffer (50 mM Hepes, pH 7.4, 5 mM MgCl₂, 5 mM EDTA, 0.005% TWEEN, 0.005% HSA) is transferred to a 96-well test plate (5 μg/well). The compound is serially diluted in DMSO, and then, 1 μL of the diluted compound or 100% DMSO is added to the test plate containing the membrane solution. 10 μL of [¹²⁵I] […] The test plate is left at room temperature for 90 minutes. The membrane complexes are harvested into a GF/B plate pre-coated with 0.5% PEI by using a Cell Harvester, and washed for 3 times with 500 μL of pre-cooled elution buffer (50 mM Hepes, pH 7.4, 500 mM NaCl) at 4° C. After drying at 37° C. for 2 hours, 50 μL of scintillation fluid is added to each well. The plate is read with a MicroBeta2 scintillation counter after sealing and settling for at least 1 hour so as to determine the membrane bound radioligand level.
On to YXEGTXTSDYXIXLDKQAQAEFVKWLLKGGPSSGAPPPSK (Aib at 2, αMePhe at 6, Aib at 11, Aib at 13; C-terminal primary amide) [P001], for which the Ki ratio was determined as 19.5 ratio.

As for B1, the Ki ratio amounted to 0.47 ratio.

For B2, the Ki ratio was determined as 1.09 ratio.

In the case of B3, the Ki ratio worked out at 0.28 ratio.

For the origin of these results see patent US20240325549A1 (HANGZHOU ZHONGMEIHUADONG PHARMACEUTICAL, published 2024).
